Assay results taken from publication PMC6192543 (Journal of the American Chemical Society, 2018).

Biological target: human A2A adenosine receptor variant A2AAR[K233W] (human, UniProt P29274 1-316, N154Q | K233W, uniformly 15N-labelled, ~70% 2H)
Test: NMR titration

Chain of human A2A adenosine receptor variant A2AAR[K233W] (P29274 1-316 N154Q/K233W): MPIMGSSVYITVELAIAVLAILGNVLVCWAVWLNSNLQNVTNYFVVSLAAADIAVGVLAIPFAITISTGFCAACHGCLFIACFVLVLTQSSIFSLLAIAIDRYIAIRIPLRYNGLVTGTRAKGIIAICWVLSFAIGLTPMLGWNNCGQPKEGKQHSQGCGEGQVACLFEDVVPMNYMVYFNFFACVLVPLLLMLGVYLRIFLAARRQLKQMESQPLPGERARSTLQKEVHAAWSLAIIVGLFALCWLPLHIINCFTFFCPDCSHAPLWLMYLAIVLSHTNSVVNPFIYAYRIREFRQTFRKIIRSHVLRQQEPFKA

binding result: binds
B1: C-terminal polypeptide GαS(374–394)[C379A] (peptide, UniProt P63092 374-394, looked up)
peptide: RVFNDARDIIQRMHLRQYELL
